1 molecule from patent US20190000885A1 (GENERAL HOSPITAL, published 2019) can be followed below.

The target in the assay is T1, RNase/ANG inhibitor 1 (RNH1), endogenous protein in sorted mouse LKS cells and myeloid-restricted progenitors (mouse, UniProt Q91VI7 1-456).
T1 sequence (looked up): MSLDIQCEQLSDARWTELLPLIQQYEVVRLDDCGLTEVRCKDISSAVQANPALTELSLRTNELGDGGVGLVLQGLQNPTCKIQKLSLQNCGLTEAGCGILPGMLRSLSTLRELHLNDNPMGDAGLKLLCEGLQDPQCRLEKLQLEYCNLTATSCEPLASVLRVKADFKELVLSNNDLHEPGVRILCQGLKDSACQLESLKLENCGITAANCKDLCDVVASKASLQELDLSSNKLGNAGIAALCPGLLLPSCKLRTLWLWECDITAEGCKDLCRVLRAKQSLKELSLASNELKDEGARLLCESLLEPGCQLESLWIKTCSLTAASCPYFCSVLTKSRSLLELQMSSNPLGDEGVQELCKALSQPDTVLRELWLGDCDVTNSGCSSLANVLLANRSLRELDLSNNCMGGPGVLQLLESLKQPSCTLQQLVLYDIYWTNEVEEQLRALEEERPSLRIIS
In words: double immunofluorescence and acceptor-photobleaching FRET (AF488 donor, AF555 acceptor) on fixed sorted mouse cells. As to the method: For ANG/RNH1 localization, cells were stained with an in-house made mouse ANG-specific C527 monoclonal antibody (10 μg/ml) and R127 rabbit pAb of RNH1 (5 μg/ml), followed with AF488-conjugated rabbit anti-mouse (Thermo Scientific A11059, 1:600 dilution) and AF555-conjugated goat anti-rabbit (Thermo Scientific A21428, 1:600 dilution). Appropriate isotype controls were used at the same concentration. Images were acquired using Nikon A1R confocal microscopy.
FRET was performed using the acceptor photo-bleaching method, as previously described (Pizzo et al., 2013). Briefly, AF488 was used as the donor and AF555 as the acceptors. Signals were photobleached to less than 10% of the initial fluorescent measurement. ROI measurements from LKS cells and myeloid-restricted progenitors were taken from 10 individual cells. FRET efficiency was calculated using the formula […], where ID and IDA are fluorescence intensities before and after photobleaching, respectively. FRET was performed using Leica SP2 confocal microscopy.
The exact subcellular compartment where tiRNA is produced by ANG is currently unknown, but it has been shown that tiRNA production is correlated to SG localization of ANG in stressed cells (Pizzo et al., 2013). […]

B1: Angiogenin (ANG), endogenous mouse protein in sorted LKS cells and myeloid-restricted progenitors (enzyme, UniProt P21570 25-145, looked up)
chain: QDDSRYTKFLTQHHDAKPKGRDDRYCERMMKRRSLTSPCKDVNTFIHGNKSNIKAICGANGSPYRENLRMSKSPFQVTTCKHTGGSPRPPCQYRASAGFRHVVIACENGLPVHFDESFFSL
notes: Endogenous intracellular protein, not the recombinant ANG preparation; also called ribonuclease 5; RNase5
With B1, the binding result was “binds”.
